Experimental data published in patent US20030186868A1 (Regeneron, published 2003).
Where two headings read alike, the source gives them in different places. Bridge positions count the residues as written; N and C are the ends. Ends that are not written are not given here.

How the values were obtained:
[1] = target: T1, human vascular endothelial growth factor receptor-2 (hVEGFR-2) (human, UniProt P35968 20-1356); experiment: cell-based or functional assay
[2] = target: T1, human vascular endothelial growth …; experiment: cell-based or functional assay; remark: listed apart in the source
[3] = target: T2, human Neuropilin-1 (hNP-1) (human, UniProt O14786 22-923); experiment: 125I-VEGF165 competition, whole COS-1 cells
T2 construct: whole, on cells; also called hNeuropilin-1
Protocol: (§1) Cells are plated the day before experimentation at 200,000 cells per well in twelve well tissue culture plates (VWR) in 1 ml of growth medium specific for each cell type. On the day of experimentation, the cells were pre-equilibrated at 4° C. for 30 to 60 minutes in binding buffer (0.2% BSA, Sigma; 25 mM Hepes, Gibco; MEM, Gibco). […] The binding reaction is allowed to reach equilibrium for four hours at 4° C. with gentle agitation.
(§2) Unbound ligand is then removed by quickly washing three times with 5 ml ice cold BSA-free binding buffer (MEM, Gibco, 25 mM Hepes, Gibco). Cells are lysed by the addition of 250 μl of RIPS Buffer (previously described), and the lysed cells are transferred to 12×75 mm test tubes and counted using a gamma counter. Generation of competition curves and IC₅₀ values are performed using the Prism software package (Graphpad Software Inc., San Diego, Calif.).

[4] = target: T1, human vascular endothelial growth …; experiment: 125I-VEGF165 (287 pM) competition by cold ligand, COS-1 cells overexpressing VEGFR-2
Protocol: The cells were then rinsed three times with ice cold binding buffer to remove unbound ligand, lysed, and transferred to 12×75 mm test tubes for counting on a gamma counter. The IC₅₀ values were calculated by fitting the data to a four parameter logistic equation (Prism software).

[5] = target: VEGFR-2/NP-1 co-receptor complex (cells co-expressing hVEGFR-2 and hNP-1) (human) (UniProt P35968); experiment: 125I-VEGF165 competition, whole COS-1 cells
[6] = target: human vascular endothelial growth factor receptor-2 (hVEGFR-2) (human) (UniProt P35968); experiment: 125I-VEGF165 competition, whole COS-1 cells
[7] = target: human Neuropilin-1 (hNP-1) (human) (UniProt O14786); experiment: 125I-VEGF165 competition, whole COS-1 cells
[8] = target: T1, human vascular endothelial growth …; experiment: 125I-VEGF165 competition, whole COS-1 cells
Protocol: as §1, §2

[9] = target: T2, human Neuropilin-1 (hNP-1); experiment: saturation binding of 125I-VEGF165, whole COS-1 cells (transient)
Protocol: as §1, §2

[10] = target: T2, human Neuropilin-1 (hNP-1); experiment: 125I-VEGF165 competition by cold VEGF165, whole COS-1 cells
Protocol: as §1, §2

[11] = target: T3, VEGFR-2/NP-1 co-receptor complex (cells co-expressing hVEGFR-2 and hNP-1) (human, UniProt P35968 20-1356; O14786 22-923); experiment: 125I-VEGF165 (201 pM) competition, cells overexpressing VEGFR-2 and NP-1 (FIG. 7)
T3 construct: whole, on cells; All numbers printed for cells co-expressing both receptors are put on this molecule; also called R2 + NP1 Cells; VEGFR-2/NP-1 complex
Protocol: as §1, §2

[12] = target: T3, VEGFR-2/NP-1 co-receptor complex (cells …); experiment: 125I-VEGF165 competition, whole COS-1 cells
[13] = target: T2, human Neuropilin-1 (hNP-1); experiment: 125I-VEGF165 competition, whole COS-1 cells; remark: listed apart in the source
[14] = target: T3, VEGFR-2/NP-1 co-receptor complex (cells …); experiment: 125I-VEGF165 competition, stable Balb/C 3T3 A31 cells
[15] = target: T2, human Neuropilin-1 (hNP-1); experiment: as above
[16] = target: VEGFR-2/NP-1 co-receptor complex (cells co-expressing hVEGFR-2 and hNP-1) (human) (UniProt P35968); experiment: 125I-VEGF165 competition, whole COS-1 cells; remark: listed apart in the source

T2 sequence (O14786 22-923): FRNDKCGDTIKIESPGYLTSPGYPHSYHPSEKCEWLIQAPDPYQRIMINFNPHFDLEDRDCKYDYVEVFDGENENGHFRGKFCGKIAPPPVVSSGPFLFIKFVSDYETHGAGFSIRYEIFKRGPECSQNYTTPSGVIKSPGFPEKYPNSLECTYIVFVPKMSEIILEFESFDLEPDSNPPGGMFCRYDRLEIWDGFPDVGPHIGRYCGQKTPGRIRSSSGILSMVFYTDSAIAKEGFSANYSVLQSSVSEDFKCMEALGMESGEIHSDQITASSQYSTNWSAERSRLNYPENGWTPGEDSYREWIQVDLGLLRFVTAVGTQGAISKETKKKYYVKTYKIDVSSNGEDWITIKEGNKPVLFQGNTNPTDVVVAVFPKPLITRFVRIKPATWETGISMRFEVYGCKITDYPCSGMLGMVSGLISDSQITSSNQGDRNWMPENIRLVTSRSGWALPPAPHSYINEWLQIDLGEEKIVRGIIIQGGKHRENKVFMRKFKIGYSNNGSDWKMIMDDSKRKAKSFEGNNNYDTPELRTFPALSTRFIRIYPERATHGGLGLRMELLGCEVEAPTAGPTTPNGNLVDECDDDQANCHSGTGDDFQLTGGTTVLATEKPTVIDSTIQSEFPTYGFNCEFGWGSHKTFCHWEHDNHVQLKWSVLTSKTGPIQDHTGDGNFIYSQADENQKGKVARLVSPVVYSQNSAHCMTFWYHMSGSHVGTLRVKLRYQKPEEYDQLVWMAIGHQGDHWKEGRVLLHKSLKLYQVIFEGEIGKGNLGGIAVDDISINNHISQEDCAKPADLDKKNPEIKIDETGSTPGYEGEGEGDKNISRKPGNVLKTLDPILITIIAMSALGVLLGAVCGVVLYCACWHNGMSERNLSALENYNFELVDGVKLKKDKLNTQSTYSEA
T3 sequence (P35968 20-1356, chain 1 of 2): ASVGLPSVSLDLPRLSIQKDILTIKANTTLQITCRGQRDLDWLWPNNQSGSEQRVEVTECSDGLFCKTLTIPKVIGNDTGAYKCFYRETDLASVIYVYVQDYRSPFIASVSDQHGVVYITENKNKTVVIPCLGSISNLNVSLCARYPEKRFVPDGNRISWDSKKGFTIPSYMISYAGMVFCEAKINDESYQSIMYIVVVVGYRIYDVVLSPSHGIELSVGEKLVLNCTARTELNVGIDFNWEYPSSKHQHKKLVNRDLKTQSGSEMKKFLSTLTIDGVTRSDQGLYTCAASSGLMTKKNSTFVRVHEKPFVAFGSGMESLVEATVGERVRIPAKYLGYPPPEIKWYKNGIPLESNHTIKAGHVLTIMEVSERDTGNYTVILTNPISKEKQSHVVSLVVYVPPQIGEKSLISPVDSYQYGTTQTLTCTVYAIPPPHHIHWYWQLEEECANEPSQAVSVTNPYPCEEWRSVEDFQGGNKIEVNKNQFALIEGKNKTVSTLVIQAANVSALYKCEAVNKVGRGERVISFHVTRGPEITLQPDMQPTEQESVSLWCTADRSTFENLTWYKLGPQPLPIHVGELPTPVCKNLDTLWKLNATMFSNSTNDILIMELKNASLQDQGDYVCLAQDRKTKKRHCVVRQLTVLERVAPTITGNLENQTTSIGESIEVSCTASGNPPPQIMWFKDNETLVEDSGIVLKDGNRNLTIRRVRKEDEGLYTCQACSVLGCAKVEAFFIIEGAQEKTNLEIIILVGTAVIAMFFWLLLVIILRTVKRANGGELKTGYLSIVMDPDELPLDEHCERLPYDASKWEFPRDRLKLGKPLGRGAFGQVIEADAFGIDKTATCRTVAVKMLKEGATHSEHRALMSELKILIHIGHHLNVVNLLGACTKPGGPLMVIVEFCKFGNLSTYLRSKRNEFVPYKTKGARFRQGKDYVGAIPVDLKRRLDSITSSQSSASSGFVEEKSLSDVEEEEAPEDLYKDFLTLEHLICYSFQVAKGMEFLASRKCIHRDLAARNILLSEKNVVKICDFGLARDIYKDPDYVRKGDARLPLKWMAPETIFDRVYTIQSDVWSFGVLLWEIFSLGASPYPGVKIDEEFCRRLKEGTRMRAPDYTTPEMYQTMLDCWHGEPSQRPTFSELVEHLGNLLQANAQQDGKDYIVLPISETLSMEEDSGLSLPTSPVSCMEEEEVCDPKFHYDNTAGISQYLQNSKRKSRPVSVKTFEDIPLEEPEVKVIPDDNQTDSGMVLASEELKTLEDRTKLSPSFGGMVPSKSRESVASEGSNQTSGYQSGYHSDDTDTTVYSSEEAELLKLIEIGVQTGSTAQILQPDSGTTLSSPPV
T3 sequence (O14786 22-923, chain 2 of 2): as the sequence (O14786 22-923) above
Chain of human vascular endothelial growth factor receptor-2 (hVEGFR-2) (human) (P35968 20-1356): as the sequence (P35968 20-1356, chain 1 of 2) above
T1 sequence (P35968 20-1356): as the sequence (P35968 20-1356, chain 1 of 2) above
Chain of VEGFR-2/NP-1 co-receptor complex (cells co-expressing hVEGFR-2 and hNP-1) (human) (P35968 20-1356, chain 1 of 2): as above
Chain of VEGFR-2/NP-1 co-receptor complex (cells co-expressing hVEGFR-2 and hNP-1) (human) (O14786 22-923, chain 2 of 2, further chain): as the sequence (O14786 22-923) above
Chain of human Neuropilin-1 (hNP-1) (human) (O14786 22-923): as above

B1: VEGF121 (ligand, UniProt P15692-9 27-147, looked up)
chain: APMAEGGGQNHHEVVKFMDVYQRSYCHPIETLVDIFQEYPDEIEYIFKPSCVPLMRCGGCCNDEGLECVPTEESNITMQIMRIKPHQGQHIGEMSFLQHNKCECRPKKDRARQEKCDKPRR
EC50 of VEGF121 for VEGFR-2 phosphorylation in HUVEC in the presence of 100 µM P6 (FIG. 8) [1]: 2.38 nM
EC50 of VEGF121 for VEGFR-2 phosphorylation in HUVEC in the presence of 100 µM P6V8 (FIG. 8) [1]: 4.04 nM
EC50 of VEGF121 for VEGFR-2 phosphorylation in HUVEC with antagonist P6V8-3NCSC13C18 (FIG. 12) [1]: 2.08 nM
EC50 of VEGF121 for VEGFR-2 phosphorylation in HUVEC, no peptide (FIG. 8) [1]: 1.84 nM
EC50 of VEGF121 for VEGFR-2 phosphorylation in HUVEC, no peptide (FIG. 12) [1]: 2.75 nM
EC50 of VEGF121 for VEGFR-2 phosphorylation in HUVEC, no peptide (FIG. 13) [1]: 3.38 nM
EC50 of VEGF121, VEGFR-2 anti-phosphotyrosine assay in HUVEC, no peptide added [2]: 2.45 nM
EC50 of VEGF121, VEGFR-2 anti-phosphotyrosine assay in HUVEC, with 100 µM P6 [2]: 2.4 nM
EC50 of VEGF121, VEGFR-2 anti-phosphotyrosine assay in HUVEC, with 100 µM P6V8 [2]: 4.07 nM
EC50 of VEGF121, VEGFR-2 anti-phosphotyrosine assay in HUVEC, with 100 µM P6V8-3N [2]: 1.17 nM
EC50 of VEGF121, VEGFR-2 anti-phosphotyrosine assay in HUVEC, with 100 µM P6V8-3N (second row with this label) [2]: 1.62 nM
EC50 of VEGF121, VEGFR-2 anti-phosphotyrosine assay in HUVEC, with 100 µM P6V8-3NCS [2]: 4.57 nM
EC50 of VEGF121, VEGFR-2 anti-phosphotyrosine assay in HUVEC, with 100 µM P6V8-3NCS1-7CC [2]: 3.31 nM
EC50 of VEGF121, VEGFR-2 anti-phosphotyrosine assay in HUVEC, with 100 µM P6V8-3NCSA7, 8, 10, 12 [2]: 17.8 nM
EC50 of VEGF121, VEGFR-2 anti-phosphotyrosine assay in HUVEC, with 100 µM P6V8-3NCSC13C18 [2]: 2.09 nM
Log EC50 of VEGF121, VEGFR-2 anti-phosphotyrosine assay in HUVEC, no peptide added [2]: -8.61
Log EC50 of VEGF121, VEGFR-2 anti-phosphotyrosine assay in HUVEC, with 100 µM P6 [2]: -8.62
Log EC50 of VEGF121, VEGFR-2 anti-phosphotyrosine assay in HUVEC, with 100 µM P6V8 [2]: -8.39
Log EC50 of VEGF121, VEGFR-2 anti-phosphotyrosine assay in HUVEC, with 100 µM P6V8-3N [2]: -8.93
Log EC50 of VEGF121, VEGFR-2 anti-phosphotyrosine assay in HUVEC, with 100 µM P6V8-3N (second row with this label) [2]: -8.79
Log EC50 of VEGF121, VEGFR-2 anti-phosphotyrosine assay in HUVEC, with 100 µM P6V8-3NCS [2]: -8.34
Log EC50 of VEGF121, VEGFR-2 anti-phosphotyrosine assay in HUVEC, with 100 µM P6V8-3NCS1-7CC [2]: -8.48
Log EC50 of VEGF121, VEGFR-2 anti-phosphotyrosine assay in HUVEC, with 100 µM P6V8-3NCSA7, 8, 10, 12 [2]: -7.75
Log EC50 of VEGF121, VEGFR-2 anti-phosphotyrosine assay in HUVEC, with 100 µM P6V8-3NCSC13C18 [2]: -8.68
binding result [3]: no binding
IC50 [4]: 0.312 nM

KGRGKRAAEKQAPSDKPRR [P6V8-3NCSA7, 8, 12]
relative affinity (IC50 peptide / IC50 VEGF165) [5]: 36600
relative affinity (IC50 peptide / IC50 VEGF165) [6]: 6000

AGRGARAAEAQRPSDKPRR [P6V8-3NCSA1, 5, 7, 8, 10]
relative affinity to lead peptide (IC50 peptide / IC50 P6V8-3NCS) [7]: 67.8
relative affinity (IC50 peptide / IC50 VEGF165) [6]: 212000

RRPAAAGKRRREKQRPSDKPRR [AS-1]
binding result [8]: no binding

KGRGKRAAEAQAPSDKPRR [P6V8-3NCSA7, 8, 10, 12]
binding result [8]: no binding

B2: human recombinant VEGF165 (ligand, UniProt P15692-4 27-191, looked up)
chain: APMAEGGGQNHHEVVKFMDVYQRSYCHPIETLVDIFQEYPDEIEYIFKPSCVPLMRCGGCCNDEGLECVPTEESNITMQIMRIKPHQGQHIGEMSFLQHNKCECRPKKDRARQENPCGPCSERRKHLFVQDPQTCKCSCKNTDSRCKARQLELNERTCRCDKPRR
modifications: 125I-labelled (chloramine T) where used as tracer
Kd [9]: 2.09 nM
Log Kd [9]: -8.68
IC50 [10]: 0.582 nM
log IC50 [10]: -9.24

RRPKGRGKRRREKQRP (also called P6 peptide; pp6) [P6]
IC50 [11]: 12200 nM

CAGRGKRCREKQRPSDKPRR (disulfide 1-8, also called P6V8-3NCSA-1 7CCA1) [P6V8-3NCS1-7CCA1]
binding result [8]: no binding

CAGRGARCREKQRPSDKPRR (disulfide 1-8) [P6V8-3NCS1-7CCA1A5]
binding result [8]: no binding

CKGRGARCREKQRPSDKPRR (disulfide 1-8) [P6V8-3NCS1-7CCA5]
binding result [8]: no binding

CKGRGKRCREKQRPSDKPRR (disulfide 1-8; also: capped amino and carboxyl termini, caps not given here) [(cap)P6V8-3NCS1-7CC]
binding result [8]: no binding
binding result [12]: no binding
binding result [13]: no binding

KGRGKRAAEAQRPSDKPRR [P6V8-3NCSA7, 8, 10]
relative affinity (IC50 peptide / IC50 VEGF165) [6]: 110000

CKGRGKRCREKQRPSDKPRR (disulfide 1-8, also called P6V8-3NCW1-7CC) [P6V8-3NCS1-7CC]
binding result [8]: no binding

AGRGARAAEKQAPSDKPRR [P6V8-3NCSA1, 5, 7, 8, 12]
binding result [8]: no binding

RRPKGRGKRRREKQRPDAVPRR (also called P6P7 peptide) [P6P7]
IC50 [11]: 1170 nM

KGRGKRRRECQRPSCKPRR (disulfide 10-15) [P6V8-3NCSC13C18]
binding result [8]: no binding
binding result [12]: binds
binding result [13]: binds

RRPKGRGKRRREAAAPSDKPRR (also called NP-1 selective peptide) [AS-4]
binding result [8]: no binding
IC50 [14]: 300 nM
IC50 [15]: 17.8 nM

RRPKGRGKRRREKQRAAAKPRR [AS-4a]
relative affinity to lead peptide (IC50 peptide / IC50 P6V8CS) [6]: 1.9

B3: P6V8 (peptide)
peptide: RRPKGRGKRRREKQRPCDKPRR
notes: synthetic; holds one free cysteine; also called P6V8 parent peptide
binding result [13]: binds

B4: (cap)P6V8-3NCS (peptide)
peptide: KGRGKRRREKQRPSDKPRR
modifications: not fully specified (N-terminus, C-terminus); also: amino and carboxyl termini capped, caps not given here
binding result [8]: no binding
relative affinity (IC50 peptide / IC50 VEGF165) [16]: 96200

RPCDKPRR [V8]
binding result [8]: no binding
binding result [3]: no binding

RPSDKPRR [V8CS]
binding result [8]: no binding

KGRGKRRREKQRPCDKPRR [P6V8-3N]
IC50 [15]: 254 nM

KGAGKARREKQRPSDKPRR [P6V8-3NCSA3A6]
binding result [8]: no binding

AGRGKARREKQRPSDKPRR [P6V8-3NCSA1A6]
binding result [8]: no binding

AGRGARRREKQRPSDKPRR [P6V8-3NCSA1A5]
binding result [8]: no binding

KGAGARRREKQRPSDKPRR [P6V8-3NCSA3A5]
binding result [8]: no binding
